Biological target: wild-type SARS-CoV 3CL protease (mature enzyme), as used for analytical ultracentrifugation (SARS-CoV)
Test: AUC

With “wild-type SARS-CoV 3CL protease (mature enzyme), as used for analytical ultracentrifugation” the Kd was 0.35 nM.

— paper PMC8062786
